T1: recombinant monkey TfR (r monkey TfR: Sino Biological Inc.), crab-eating monkey TfR extracellular region with … (crab-eating monkey (Macaca fascicularis))
T1 construct: Bought from Sino Biological; also called r monkey TfR-ECD (Histag); not shown: histidine tag at the N-terminus
T1 chain: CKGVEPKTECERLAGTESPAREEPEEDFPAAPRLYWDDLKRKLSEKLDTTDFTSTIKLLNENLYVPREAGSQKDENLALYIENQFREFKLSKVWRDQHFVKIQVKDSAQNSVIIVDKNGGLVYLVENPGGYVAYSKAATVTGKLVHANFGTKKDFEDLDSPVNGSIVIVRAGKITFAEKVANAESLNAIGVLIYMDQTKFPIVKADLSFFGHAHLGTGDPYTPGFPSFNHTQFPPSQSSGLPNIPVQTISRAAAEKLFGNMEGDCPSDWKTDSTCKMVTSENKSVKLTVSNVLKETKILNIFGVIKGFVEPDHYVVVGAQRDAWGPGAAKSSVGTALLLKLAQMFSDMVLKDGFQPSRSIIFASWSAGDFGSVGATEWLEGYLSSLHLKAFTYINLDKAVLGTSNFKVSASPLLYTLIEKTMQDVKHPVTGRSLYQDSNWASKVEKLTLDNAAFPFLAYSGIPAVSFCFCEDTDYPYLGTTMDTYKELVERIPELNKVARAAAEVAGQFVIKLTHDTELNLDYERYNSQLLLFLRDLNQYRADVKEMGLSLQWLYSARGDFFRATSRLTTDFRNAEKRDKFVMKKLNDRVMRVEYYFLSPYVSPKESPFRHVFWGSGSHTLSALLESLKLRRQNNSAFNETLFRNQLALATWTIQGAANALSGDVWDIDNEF

B1: Fab GS3-IDUA (other)
light: DIVMTQTPLSLSVTPGQPASISCRSSQSLVHSNGNTYLHWYLQKPGQSPQLLIYKVSNRFSGVPDRFSGSGSGTDFTLKISRVEAEDVGVYYCSQSTHVPWTFGQGTKVEIKRTVAAPSVFIFPPSDEQLKSGTASVVCLLNNFYPREAKVQWKVDNALQSGNSQESVTEQDSKDSTYSLSSTLTLSKADYEKHKVYACEVTHQGLSSPVTKSFNRGEC
heavy: EVQLVQSGAEVKKPGESLKISCKGSGYSFMNYWLGWVRQMPGKGLEWMGDIYPGGDYPTYSEKFKVQVTISADKSISTAYLQLSSLKASDTAMYYCARSGNYDEVAYWGQGTLVTVSSASTKGPSVFPLAPSSKSTSGGTAALGCLVKDYFPEPVTVSWNSGALTSGVHTFPAVLQSSGLYSLSSVVTVPSSSLGTQTYICNVNHKPSNTKVDKKVEPKSCDKTHTGGGGSGGGGSGGGGSAEAPHLVHVDAARALWPLRRFWRSTGFCPPLPHSQADQYVLSWDQQLNLAYVGAVPHRGIKQVRTHWLLELVTTRGSTGRGLSYNFTHLDGYLDLLRENQLLPGFELMGSASGHFTDFEDKQQVFEWKDLVSSLARRYIGRYGLAHVSKWNFETWNEPDHHDFDNVSMTMQGFLNYYDACSEGLRAASPALRLGGPGDSFHTPPRSPLSWGLLRHCHDGTNFFTGEAGVRLDYISLHRKGARSSISILEQEKVVAQQIRQLFPKFADTPIYNDEADPLVGWSLPQPWRADVTYAAMVVKVIAQHQNLLLANTTSAFPYALLSNDNAFLSYHPHPFAQRTLTARFQVNNTRPPHVQLLRKPVLTAMGLLALLDEEQLWAEVSQAGTVLDSNHTVGVLASAHRPQGPADAWRAAVLIYASDDTRAHPNRSVAVTLRLRGVPPGPGLVYVTRYLDNGLCSPDGEWRRLGRPVFPTAEQFRRMRAAEDPVAAAPRPLPAGGRLTLRPALRLPSLLLVHVCARPEKPPGQVTRLRALPLTQGQLVLVWSDEHVGSKCLWTYEIQFSQDGKAYTPVSRKPSTFNLFVFSPDTGAVSGSYRVRALDYWARPGPFSDPVPYLEVPVPRGPPSPGNP
notes: also called Fab HC-GS3-IDUA
B2: Fab GS3-ASM (other)
light: B1 light
heavy: EVQLVQSGAEVKKPGESLKISCKGSGYSFMNYWLGWVRQMPGKGLEWMGDIYPGGDYPTYSEKFKVQVTISADKSISTAYLQLSSLKASDTAMYYCARSGNYDEVAYWGQGTLVTVSSASTKGPSVFPLAPSSKSTSGGTAALGCLVKDYFPEPVTVSWNSGALTSGVHTFPAVLQSSGLYSLSSVVTVPSSSLGTQTYICNVNHKPSNTKVDKKVEPKSCDKTHTGGGGSGGGGSGGGGSLSDSRVLWAPAEAHPLSPQGHPARLHRIVPRLRDVFGWGNLTCPICKGLFTAINLGLKKEPNVARVGSVAIKLCNLLKIAPPAVCQSIVHLFEDDMVEVWRRSVLSPSEACGLLLGSTCGHWDIFSSWNISLPTVPKPPPKPPSPPAPGAPVSRILFLTDLHWDHDYLEGTDPDCADPLCCRRGSGLPPASRPGAGYWGEYSKCDLPLRTLESLLSGLGPAGPFDMVYWTGDIPAHDVWHQTRQDQLRALTTVTALVRKFLGPVPVYPAVGNHESTPVNSFPPPFIEGNHSSRWLYEAMAKAWEPWLPAEALRTLRIGGFYALSPYPGLRLISLNMNFCSRENFWLLINSTDPAGQLQWLVGELQAAEDRGDKVHIIGHIPPGHCLKSWSWNYYRIVARYENTLAAQFFGHTHVDEFEVFYDEETLSRPLAVAFLAPSATTYIGLNPGYRVYQIDGNYSGSSHVVLDHETYILNLTQANIPGAIPHWQLLYRARETYGLPNTLPTAWHNLVYRMRGDMQLFQTFWFLYHKGHPPSEPCGTPCRLATLCAQLSARADSPALCRHLMPDGSLPEAQSLWPRPLFC
notes: also called Fab HC-GS3-ASM
B3: Fab GS3-GBA (other)
light: B1 light
heavy: EVQLVQSGAEVKKPGESLKISCKGSGYSFMNYWLGWVRQMPGKGLEWMGDIYPGGDYPTYSEKFKVQVTISADKSISTAYLQLSSLKASDTAMYYCARSGNYDEVAYWGQGTLVTVSSASTKGPSVFPLAPSSKSTSGGTAALGCLVKDYFPEPVTVSWNSGALTSGVHTFPAVLQSSGLYSLSSVVTVPSSSLGTQTYICNVNHKPSNTKVDKKVEPKSCDKTHTGGGGSGGGGSGGGGSARPCIPKSFGYSSVVCVCNATYCDSFDPPTFPALGTFSRYESTRSGRRMELSMGPIQANHTGTGLLLTLQPEQKFQKVKGFGGAMTDAAALNILALSPPAQNLLLKSYFSEEGIGYNIIRVPMASCDFSIRTYTYADTPDDFQLHNFSLPEEDTKLKIPLIHRALQLAQRPVSLLASPWTSPTWLKTNGAVNGKGSLKGQPGDIYHQTWARYFVKFLDAYAEHKLQFWAVTAENEPSAGLLSGYPFQCLGFTPEHQRDFIARDLGPTLANSTHHNVRLLMLDDQRLLLPHWAKVVLTDPEAAKYVHGIAVHWYLDFLAPAKATLGETHRLFPNTMLFASEACVGSKFWEQSVRLGSWDRGMQYSHSIITNLLYHVVGWTDWNLALNPEGGPNWVRNFVDSPIIVDITKDTFYKQPMFYHLGHFSKFIPEGSQRVGLVASQKNDLDAVALMHPDGSAVVVVLNRSSKDVPLTIKDPAVGFLETISPGYSIHTYLWRRQ
notes: also called Fab HC-GS3-GBA
B4: Fab GS3-ARSA (other)
light: B1 light
heavy: EVQLVQSGAEVKKPGESLKISCKGSGYSFMNYWLGWVRQMPGKGLEWMGDIYPGGDYPTYSEKFKVQVTISADKSISTAYLQLSSLKASDTAMYYCARSGNYDEVAYWGQGTLVTVSSASTKGPSVFPLAPSSKSTSGGTAALGCLVKDYFPEPVTVSWNSGALTSGVHTFPAVLQSSGLYSLSSVVTVPSSSLGTQTYICNVNHKPSNTKVDKKVEPKSCDKTHTGGGGSGGGGSGGGGSRPPNIVLIFADDLGYGDLGCYGHPSSTTPNLDQLAAGGLRFTDFYVPVSLCTPSRAALLTGRLPVRMGMYPGVLVPSSRGGLPLEEVTVAEVLAARGYLTGMAGKWHLGVGPEGAFLPPHQGFHRFLGIPYSHDQGPCQNLTCFPPATPCDGGCDQGLVPIPLLANLSVEAQPPWLPGLEARYMAFAHDLMADAQRQDRPFFLYYASHHTHYPQFSGQSFAERSGRGPFGDSLMELDAAVGTLMTAIGDLGLLEETLVIFTADNGPETMRMSRGGCSGLLRCGKGTTYEGGVREPALAFWPGHIAPGVTHELASSLDLLPTLAALAGAPLPNVTLDGFDLSPLLLGTGKSPRQSLFFYPSYPDEVRGVFAVRTGKYKAHFFTQGSAHSDTTADPACHASSSLTAHEPPLLYDLSKDPGENYNLLGGVAGATPEVLQALKQLQLLKAQLDAAVTFGPSQVARGEDPALQICCHPGCTPRPACCHCPDPHA
notes: also called Fab HC-GS3-ARSA
B5: Fab GS3-SGSH (other)
light: B1 light
heavy: EVQLVQSGAEVKKPGESLKISCKGSGYSFMNYWLGWVRQMPGKGLEWMGDIYPGGDYPTYSEKFKVQVTISADKSISTAYLQLSSLKASDTAMYYCARSGNYDEVAYWGQGTLVTVSSASTKGPSVFPLAPSSKSTSGGTAALGCLVKDYFPEPVTVSWNSGALTSGVHTFPAVLQSSGLYSLSSVVTVPSSSLGTQTYICNVNHKPSNTKVDKKVEPKSCDKTHTGGGGSGGGGSGGGGSRPRNALLLLADDGGFESGAYNNSAIATPHLDALARRSLLFRNAFTSVSSCSPSRASLLTGLPQHQNGMYGLHQDVHHFNSFDKVRSLPLLLSQAGVRTGIIGKKHVGPETVYPFDFAYTEENGSVLQVGRNITRIKLLVRKFLQTQDDRPFFLYVAFHDPHRCGHSQPQYGTFCEKFGNGESGMGRIPDWTPQAYDPLDVLVPYFVPNTPAARADLAAQYTTVGRMDQGVGLVLQELRDAGVLNDTLVIFTSDNGIPFPSGRTNLYWPGTAEPLLVSSPEHPKRWGQVSEAYVSLLDLTPTILDWFSIPYPSYAIFGSKTIHLTGRSLLPALEAEPLWATVFGSQSHHEVTMSYPMRSVQHRHFRLVHNLNFKMPFPIDQDFYVSPTFQDLLNRTTAGQPTGWYKDLRHYYYRARWELYDRSRDPHETQNLATDPRFAQLLEMLRDQLAKWQWETHDPWVCAPDGVLEEKLSPQCQPLHNEL
notes: also called Fab HC-GS3-SGSH
B6: Fab GS3-PPT1 (other)
light: B1 light
heavy: EVQLVQSGAEVKKPGESLKISCKGSGYSFMNYWLGWVRQMPGKGLEWMGDIYPGGDYPTYSEKFKVQVTISADKSISTAYLQLSSLKASDTAMYYCARSGNYDEVAYWGQGTLVTVSSASTKGPSVFPLAPSSKSTSGGTAALGCLVKDYFPEPVTVSWNSGALTSGVHTFPAVLQSSGLYSLSSVVTVPSSSLGTQTYICNVNHKPSNTKVDKKVEPKSCDKTHTGGGGSGGGGSGGGGSDPPAPLPLVIWHGMGDSCCNPLSMGAIKKMVEKKIPGIYVLSLEIGKTLMEDVENSFFLNVNSQVTTVCQALAKDPKLQQGYNAMGFSQGGQFLRAVAQRCPSPPMINLISVGGQHQGVFGLPRCPGESSHICDFIRKTLNAGAYSKVVQERLVQAEYWHDPIKEDVYRNHSIFLADINQERGINESYKKNLMALKKFVMVKFLNDSIVDPVDSEWFGFYRSGQAKETIPLQETSLYTQDRLGLKEMDNAGQLVFLATEGDHLQLSEEWFYAHIIPFLG
notes: also called Fab HC-GS3-PPT1

What was measured:
[1] = target: T1, recombinant monkey TfR (r monkey TfR: …); assay: BLI (Octet RED96), His-tagged TfR ECD on Ni-NTA sensor
[2] = target: T2, recombinant human TfR (r human TfR: Sino Biological Inc.), hTfR extracellular region with a histidine tag at … (human, UniProt P02786 89-760); assay: as above
T2 construct: Bought from Sino Biological; also called r human TfR-ECD (Histag); recombinant hTfR; not shown: histidine tag at the N-terminus

Kd [1]	koff [1]	kon [1]	kon [2]	Kd [2]	koff [2]	Binder
1320 pM	0.000292 s⁻¹	221000 M⁻¹ s⁻¹	293000 M⁻¹ s⁻¹			B1
2000 pM	0.000549 s⁻¹	274000 M⁻¹ s⁻¹	526000 M⁻¹ s⁻¹	68.9 pM	3.63e-05 s⁻¹	B2
		299000 M⁻¹ s⁻¹	623000 M⁻¹ s⁻¹	< 1 pM	< 1e-07 s⁻¹	B3
1090 pM	0.000281 s⁻¹	258000 M⁻¹ s⁻¹	670000 M⁻¹ s⁻¹			B4
< 1 pM	< 1e-07 s⁻¹	388000 M⁻¹ s⁻¹	721000 M⁻¹ s⁻¹	< 1 pM	< 1e-07 s⁻¹	B5
			417000 M⁻¹ s⁻¹	< 1 pM	< 1e-07 s⁻¹	B6

— US20250026846A1 (JCR PHARMACEUTICALS, published 2025)
